Experimental data: US11674959B2, “Methods for identifying and preparing pharmaceutical agents for activating Tie1 and/or Tie2 receptors” (The Johns Hopkins University, priority 2017, dated 2023)

Legend:
[1] = target: integrin αvβ3 (Homo sapiens, UniProt P05106+P06756); details: Lee et al. 2014; Lima et al. 2017; cited from earlier work
[2] = target: integrin α5β1 (Homo sapiens, UniProt P05556+P08648); details: Lee et al. 2014; Lima et al. 2017; cited from earlier work
[3] = tested on: phospho-Tie2 (Y992); experiment: Immunofluorescence of MEC monolayers for phospho-Tie2 (Y992); format: cell-based, human; details: 200 ng/ml Ang2 for fifteen minutes plus AXT107
Method: As such, subsequent experiments evaluate the effects of AXT107 at cell-cell junctions in MEC monolayers using immunofluorescence microscopy rather than at the EC-ECM interface.
Human dermal microvascular endothelial cells (Lonza) were maintained at 37° C. and 5% CO2 in EBM-2MV medium (Lonza) and used between passages two through seven. Where applicable, cells were serum starved in EBM-2 medium (Lonza) with no supplements. For FITC-Dextran permeability assays phenol red-free media were used to avoid auto-fluorescence. AXT107 were manufactured at New England Peptide by […], lyophilized, and dissolved in 100% DMSO.
Glass-bottomed, 96-well plates with half well size were coated with 10 μg/ml FN1 for two hours at 37° C. The FN1 solution was then removed by aspiration and the plate seeded with 4×10^3 MECs in EGM-2MV media. After twenty-four hours, the cells were washed once with dPBS containing Ca^2+ and Mg^2+ to remove dead cells and the cells were allowed to grow for an additional twenty-four hours. For three-hour duration treatments (i.e., VE-cadherin), cells were washed twice with dPBS containing Ca^2+ and Mg^2+ and serum starved in EBM-2 for ninety minutes. The media was then removed and the cells were treated for three hours with 100 μl of EBM-2 media containing 200 ng/ml Ang2 or PBS and varying concentrations of AXT107 or DMSO. […]

[4] = tested on: myosin light chain 2 (MLC2); experiment: Western blot of MEC lysates for pMLC2; format: cell-based, human; details: AXT107 and 200 ng/ml Ang2
Method: Phosphorylation of Tie2 is known to stimulate the Rap1-GTPase pathway, leading to a reduction in the phosphorylation of the downstream motor protein myosin light chain 2 (MLC2) associated with actin rearrangement.
For Ang1/2 signaling investigations, cell culture dishes (10 cm diameter) were coated with 5 μg/ml fibronectin (FN1; Sigma-Aldrich, St. Louis, Mo.) for two hours at 37° C. The FN1 solution was then removed by aspiration and 5×10^6 microvascular endothelial cells (MECs; Lonza, Walkersville, Md.) were plated in EGM-2MV media (Lonza) and cultured for forty-eight hours at 37° C. The cells were then serum starved for sixteen hours in serum-free EGM-2 base media (Lonza). AXT107 (0-100 μM, as indicated) was subsequently added to each culture and incubated for seventy-five minutes at 37° C. […] Specific proteins were identified by Western blot, using the following primary antibodies: Cell Signaling—phospho-Tie2 (Y992) (Cat #: 4221), Tie2 (Cat #: 7403), phospho-Stat3 (Y705) (Cat #: 4113), Stat3 (Cat #: 4904), phospho-Akt (S473) (Cat #: 4058), Akt (Cat #: 9272), phospho-p44/42 MAPK (T202/Y204) (Cat #: 4370), p44/42 MAPK (Cat #: 4695); BD Transduction Laboratories—β1 integrin (Cat #: 610467); Millipore—α5 integrin (Cat #: AB1928) and detected with HRP-conjugated goat anti-rabbit and sheep anti-mouse secondary antibodies (GE healthcare).

[5] = target: T1, α5 and β1 integrin subunits (Homo sapiens, UniProt P05556+P08648); experiment: Duolink protein interaction analysis of α5 and β1 integrin in MEC monolayers; format: cell-based; details: 100 μM AXT107 compared to vehicle
T1 construct: host or cells: human dermal microvascular endothelial cells (MECs)
Method: Additionally, changes in the interaction between the α5 and β1 subunits were further investigated using Duolink™ technology which can visualize individual interactions between α5 and β1 integrin subunits as distinct spots by fluorescence microscopy.
Glass bottom, 96-well plates were coated with FN1, seeded with MECs, as described above for the immunofluorescence experiments. After growing for forty-eight hours, cells were serum starved for three hours, treated with 100 μM AXT107 or DMSO vehicle for ninety minutes, washed twice with dPBS containing Ca^2+ and Mg^2+, and fixed in 10% neutral buffered formalin. Cells were blocked in 5% normal goat serum; 0.3% Triton X-100 in dPBS containing Ca^2+ and Mg^2+ for one hour and incubated overnight at 4° C. with rabbit anti-α5 integrin and mouse anti-β1 integrin antibodies in PBS containing Ca^2+ and Mg^2+ with 1% BSA and 0.1% Triton X-100. Interaction spots were developed using DUOLINK green detection reagent according to the manufacturer's instructions and detected using the BD pathway 855 system.

T1 sequence (P08648 42-894 limits assumed): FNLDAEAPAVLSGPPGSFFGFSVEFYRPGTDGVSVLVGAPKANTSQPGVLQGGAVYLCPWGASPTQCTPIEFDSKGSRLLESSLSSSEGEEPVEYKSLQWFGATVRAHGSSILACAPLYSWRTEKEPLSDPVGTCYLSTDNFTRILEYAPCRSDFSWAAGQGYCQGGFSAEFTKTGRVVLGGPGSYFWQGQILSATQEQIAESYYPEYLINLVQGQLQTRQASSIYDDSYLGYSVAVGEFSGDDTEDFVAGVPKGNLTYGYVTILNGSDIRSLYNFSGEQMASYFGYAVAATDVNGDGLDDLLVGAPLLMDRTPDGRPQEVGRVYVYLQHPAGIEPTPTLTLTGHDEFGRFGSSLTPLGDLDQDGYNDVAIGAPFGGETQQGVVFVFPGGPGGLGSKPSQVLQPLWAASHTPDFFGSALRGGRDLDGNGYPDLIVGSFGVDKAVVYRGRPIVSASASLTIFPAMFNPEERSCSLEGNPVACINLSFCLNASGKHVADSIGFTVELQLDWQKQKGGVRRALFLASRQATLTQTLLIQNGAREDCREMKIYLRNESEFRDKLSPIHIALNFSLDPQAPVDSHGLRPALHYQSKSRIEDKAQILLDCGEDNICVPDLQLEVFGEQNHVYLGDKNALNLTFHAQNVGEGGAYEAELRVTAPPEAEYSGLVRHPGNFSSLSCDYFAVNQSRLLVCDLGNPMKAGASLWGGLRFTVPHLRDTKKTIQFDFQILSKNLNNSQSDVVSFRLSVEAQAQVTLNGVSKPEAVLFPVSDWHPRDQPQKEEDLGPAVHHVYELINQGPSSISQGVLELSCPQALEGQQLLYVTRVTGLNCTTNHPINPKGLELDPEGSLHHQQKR
T1 sequence (P08648 895-1049 limits assumed): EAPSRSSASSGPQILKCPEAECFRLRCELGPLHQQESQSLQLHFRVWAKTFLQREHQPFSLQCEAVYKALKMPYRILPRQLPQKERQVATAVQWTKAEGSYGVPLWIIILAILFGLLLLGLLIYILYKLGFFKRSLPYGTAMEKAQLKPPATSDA
T1 sequence (P05556 21-798): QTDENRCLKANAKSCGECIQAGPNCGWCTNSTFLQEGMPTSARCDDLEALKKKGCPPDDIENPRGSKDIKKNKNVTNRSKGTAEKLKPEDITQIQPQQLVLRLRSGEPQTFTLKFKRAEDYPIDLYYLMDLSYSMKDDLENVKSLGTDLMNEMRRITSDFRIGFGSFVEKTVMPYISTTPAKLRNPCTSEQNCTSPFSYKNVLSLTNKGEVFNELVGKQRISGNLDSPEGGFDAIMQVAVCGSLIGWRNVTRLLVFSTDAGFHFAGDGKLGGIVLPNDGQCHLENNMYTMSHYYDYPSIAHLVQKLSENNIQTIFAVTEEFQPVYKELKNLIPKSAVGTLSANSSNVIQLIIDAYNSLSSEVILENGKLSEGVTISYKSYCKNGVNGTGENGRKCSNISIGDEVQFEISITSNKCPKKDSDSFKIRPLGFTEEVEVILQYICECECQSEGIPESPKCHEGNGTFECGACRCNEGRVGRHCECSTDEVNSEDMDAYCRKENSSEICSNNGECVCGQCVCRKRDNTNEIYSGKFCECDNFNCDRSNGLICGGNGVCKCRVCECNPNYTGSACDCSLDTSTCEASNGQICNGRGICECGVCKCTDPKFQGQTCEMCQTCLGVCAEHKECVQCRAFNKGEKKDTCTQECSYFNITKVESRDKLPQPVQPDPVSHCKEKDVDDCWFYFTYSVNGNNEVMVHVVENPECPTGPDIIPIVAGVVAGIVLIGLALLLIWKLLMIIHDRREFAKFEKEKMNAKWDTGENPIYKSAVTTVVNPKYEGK
Sequence of integrin αvβ3 (P06756 31-1048): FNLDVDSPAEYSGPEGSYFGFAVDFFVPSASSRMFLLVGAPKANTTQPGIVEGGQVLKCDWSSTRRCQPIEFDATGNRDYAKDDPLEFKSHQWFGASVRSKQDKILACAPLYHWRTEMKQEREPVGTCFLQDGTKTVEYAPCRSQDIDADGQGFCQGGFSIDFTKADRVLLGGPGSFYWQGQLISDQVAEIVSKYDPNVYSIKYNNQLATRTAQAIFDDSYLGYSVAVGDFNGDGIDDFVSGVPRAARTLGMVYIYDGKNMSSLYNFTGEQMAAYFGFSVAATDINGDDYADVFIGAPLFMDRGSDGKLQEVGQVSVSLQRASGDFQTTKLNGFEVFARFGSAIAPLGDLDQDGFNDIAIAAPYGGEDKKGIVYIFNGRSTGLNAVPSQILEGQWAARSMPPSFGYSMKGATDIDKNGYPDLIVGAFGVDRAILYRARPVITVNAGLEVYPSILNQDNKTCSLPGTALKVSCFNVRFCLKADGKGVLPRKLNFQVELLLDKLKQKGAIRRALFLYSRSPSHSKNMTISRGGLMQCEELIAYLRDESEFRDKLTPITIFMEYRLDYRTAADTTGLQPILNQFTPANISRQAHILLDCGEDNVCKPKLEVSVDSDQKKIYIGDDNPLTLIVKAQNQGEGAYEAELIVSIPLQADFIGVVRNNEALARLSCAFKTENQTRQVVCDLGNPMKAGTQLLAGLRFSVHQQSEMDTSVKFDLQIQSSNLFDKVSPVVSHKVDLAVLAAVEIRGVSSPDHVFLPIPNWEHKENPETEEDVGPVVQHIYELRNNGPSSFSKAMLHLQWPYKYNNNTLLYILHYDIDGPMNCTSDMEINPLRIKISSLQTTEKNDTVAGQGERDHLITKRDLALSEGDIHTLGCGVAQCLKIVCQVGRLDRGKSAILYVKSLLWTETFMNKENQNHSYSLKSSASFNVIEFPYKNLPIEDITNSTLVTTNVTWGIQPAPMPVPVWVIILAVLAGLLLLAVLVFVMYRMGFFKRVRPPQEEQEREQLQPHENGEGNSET
Sequence of integrin αvβ3 (P05106 27-788): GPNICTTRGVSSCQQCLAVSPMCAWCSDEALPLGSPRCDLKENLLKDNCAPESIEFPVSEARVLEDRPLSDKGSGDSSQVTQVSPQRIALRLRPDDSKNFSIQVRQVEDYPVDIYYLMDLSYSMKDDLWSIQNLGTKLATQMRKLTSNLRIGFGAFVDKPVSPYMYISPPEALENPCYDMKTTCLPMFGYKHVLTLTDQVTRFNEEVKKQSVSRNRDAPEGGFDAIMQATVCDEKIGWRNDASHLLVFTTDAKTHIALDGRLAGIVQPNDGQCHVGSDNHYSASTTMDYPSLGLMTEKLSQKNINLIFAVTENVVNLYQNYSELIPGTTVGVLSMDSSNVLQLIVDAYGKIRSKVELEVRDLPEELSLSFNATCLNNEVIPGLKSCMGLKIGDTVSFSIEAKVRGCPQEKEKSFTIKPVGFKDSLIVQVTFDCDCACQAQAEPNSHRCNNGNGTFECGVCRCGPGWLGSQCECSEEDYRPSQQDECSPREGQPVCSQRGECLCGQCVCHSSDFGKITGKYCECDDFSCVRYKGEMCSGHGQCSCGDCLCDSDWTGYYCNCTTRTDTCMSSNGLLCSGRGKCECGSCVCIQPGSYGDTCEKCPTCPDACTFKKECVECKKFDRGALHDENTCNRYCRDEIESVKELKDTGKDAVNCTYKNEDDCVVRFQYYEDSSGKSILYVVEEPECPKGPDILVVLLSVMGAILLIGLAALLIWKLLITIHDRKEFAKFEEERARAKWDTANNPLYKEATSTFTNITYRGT
Sequence of integrin α5β1 (P08648 42-1049): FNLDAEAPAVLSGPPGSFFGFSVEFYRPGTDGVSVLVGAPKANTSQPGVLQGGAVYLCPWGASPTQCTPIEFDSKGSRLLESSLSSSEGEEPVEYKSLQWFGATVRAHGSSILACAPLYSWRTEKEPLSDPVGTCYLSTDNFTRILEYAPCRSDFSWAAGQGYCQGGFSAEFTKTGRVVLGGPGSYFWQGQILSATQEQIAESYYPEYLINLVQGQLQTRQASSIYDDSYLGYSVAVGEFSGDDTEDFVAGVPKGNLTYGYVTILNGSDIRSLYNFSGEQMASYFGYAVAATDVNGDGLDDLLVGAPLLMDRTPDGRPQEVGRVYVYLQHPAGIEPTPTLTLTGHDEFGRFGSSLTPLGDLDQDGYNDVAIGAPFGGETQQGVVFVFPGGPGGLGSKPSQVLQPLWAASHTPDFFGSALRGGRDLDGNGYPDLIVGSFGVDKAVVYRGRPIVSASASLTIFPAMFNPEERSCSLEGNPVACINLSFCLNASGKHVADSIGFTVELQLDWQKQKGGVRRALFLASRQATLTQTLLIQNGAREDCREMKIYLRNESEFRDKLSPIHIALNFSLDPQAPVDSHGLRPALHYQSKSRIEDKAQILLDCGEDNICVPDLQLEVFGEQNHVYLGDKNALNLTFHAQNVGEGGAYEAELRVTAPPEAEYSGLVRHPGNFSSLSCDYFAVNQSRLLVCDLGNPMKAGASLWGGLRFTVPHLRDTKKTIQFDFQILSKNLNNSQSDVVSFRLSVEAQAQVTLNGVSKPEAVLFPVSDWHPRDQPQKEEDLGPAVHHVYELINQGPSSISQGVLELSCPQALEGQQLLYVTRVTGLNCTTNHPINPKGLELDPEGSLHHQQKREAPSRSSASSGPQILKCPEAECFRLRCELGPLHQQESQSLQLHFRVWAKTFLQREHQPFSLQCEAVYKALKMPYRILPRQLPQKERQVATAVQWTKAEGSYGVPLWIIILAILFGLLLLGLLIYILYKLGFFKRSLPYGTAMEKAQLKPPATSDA
Sequence of integrin α5β1 (P05556 21-798): as the sequence (P05556 21-798) above

With LRRFSTAPFAFIDINDVINF [AXT107] as the sequence, how does the “Binding to integrin αvβ3” value [1] read?
Its value is “binds tightly”.

What about the “Binding to integrin α5β1” value [2] of the same sequence?
Its value is “binds tightly”.

And the “phospho-Tie2 fluorescence intensity and distribution” value [3]?
The value was “increased overall fluorescence intensity and redistributed phospho-Tie2 along cell-cell junctions and into large clusters”.

What about the “Phosphorylation of MLC2” value [4] of the same sequence?
The value was “reduced in a dose-dependent manner”.

And the “Interactions between α5 and β1 integrin subunits (Duolink)” value [5]?
Its value is “significantly reduced”.
